Experimental data taken from the supplement of paper PMC12764529.
± gives the half width of the 95% confidence interval.

Experiments:
[1] = folding stability dG unfold (combined trypsin and chymotrypsin); higher = more stable
In short: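 Unfolding free energy was derived, per protease or combined, by relating Bayesian-fitted K50 values from sequencing counts to a sequence-predicted unfolded-state K50 and a shared folded-state K50. The underlying digests exposed cysteine-free mini-proteins under 80 residues, in a PA-tagged cDNA display construct, to trypsin and chymotrypsin at 11 threefold-diluted concentrations and to a no-protease condition. A filter kept only designs with AlphaFold2 dimer inter-PAE above 15.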

[2] = folding stability dG unfold from trypsin proteolysis; higher = more stable
Procedure: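 Folding stability of de novo designed mini-proteins (<80 aa, no Cys; designed by TrROS, TrMRF, ProteinMPNN and the joint model) was measured by cDNA display proteolysis with trypsin and chymotrypsin. Each protease was used at 11 concentrations in a threefold dilution series plus a no-protease condition. K50 was inferred by Bayesian fitting of sequencing counts, and dG unfold was derived against a sequence-predicted unfolded-state K50 (Tsuboyama et al. method). Sequences shown include variable-length N-terminal GS-type padding (SAGGSAGG...) inside a display construct carrying a PA tag. Rows were kept only if the AF2 dimer inter-PAE was >15, to exclude likely homo-oligomers.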

Sequence: SAGGSAGGSAGGSSLSTVAPSPSGRLYVELDIDEPVVSPTPIPTGTGPVSGIIVSPVLLSAGGSAGGSAGGS [r10_92_JUSTAS]
- folding stability dG unfold [1]: < -1 kcal/mol
- folding stability dG unfold [2]: -0.989 ± 0.31 kcal/mol

Sequence: SAGGSAGGSAGGSSTITIGDSEVSVTADPKAPVATASYPASGVTFTITRPDASVTITPTPSAGGSAGGSAGG [r7_156_JUSTAS]
- folding stability dG unfold [1]: < -1 kcal/mol
- folding stability dG unfold [2]: -0.783 ± 0.42 kcal/mol

Sequence: SAGGSAGGSAGGTAKELVNEIAKEFMQDHPNQEIPIEVEVRTNGKPVKAEIPIRLPPGQSAGGSAGGSAGGS [r10_1204_TrROS]
- folding stability dG unfold [1]: < -1 kcal/mol
- folding stability dG unfold [2]: -0.402 ± 0.07 kcal/mol

Sequence: SAGGSAGGSAGGWVFDSDDYPKFQDAAKDHGLKPKSINDDDNTMTVDPEDPNRIRDAINESAGGSAGGSAGG [r7_285_TrROS]
- folding stability dG unfold [1]: < -1 kcal/mol
- folding stability dG unfold [2]: -0.147 ± 0.21 kcal/mol

Sequence: SAGGSAGGSAGKITIRNPENGYAIKIKFGDKEKTIPIDPDQIDEFLEKLPGIKVEPYPWKSAGGSAGGSAGG [r11_57_TrROS]
- folding stability dG unfold [1]: -0.899 ± 0.59 kcal/mol
- folding stability dG unfold [2]: -0.574 ± 0.2 kcal/mol

Sequence: SAGGSAGGSAGMEDLVTVTETVETTDTLRDEGGTPTGTTTTTTTVTKLLSPEKVAALKEASAGGSAGGSAGG [r11_620_JUSTAS]
- folding stability dG unfold [1]: -0.85 ± 0.23 kcal/mol
- folding stability dG unfold [2]: -0.116 ± 0.021 kcal/mol

Sequence: SAGGSAGGSAGMKIVAPSKEEAEKIAKELAKELGLPDEIKDLEIEVIPLKPTPDGGFIPYSAGGSAGGSAGG [r17_237_TrMRF]
- folding stability dG unfold [1]: -0.715 ± 0.22 kcal/mol
- folding stability dG unfold [2]: -0.168 ± 0.17 kcal/mol

Sequence: SAGGSAGGSAGMKTYTVPLPGGDPALIEQTAQDIVEKIPGLEDHEVKVDAGDDGTLTIVESAGGSAGGSAGG [r17_324_JUSTAS]
- folding stability dG unfold [1]: < -1 kcal/mol
- folding stability dG unfold [2]: -0.736 ± 0.16 kcal/mol

Sequence: SAGGSAGGSAGMKVVLTVPESEAAKPEVLEAKAQEIKEKHPGEEVEVEFITNPFPPGTPLSAGGSAGGSAGG [r11_743_JUSTAS]
- folding stability dG unfold [1]: -0.108 ± 0.1 kcal/mol
- folding stability dG unfold [2]: 0.456 ± 0.019 kcal/mol

Sequence: SAGGSAGGSAGMTLEEKLKEAEEKHKKEGGPATITITDPTATGVSKTYTVTIENEGLKVESAGGSAGGSAGG [r11_954_JUSTAS]
- folding stability dG unfold [1]: -0.132 ± 0.36 kcal/mol
- folding stability dG unfold [2]: 0.034 ± 0.055 kcal/mol

Sequence: SAGGSAGGSAGPKPEYIRIKIEMWNPDGNPREHDFTFPPGHKDQIENLADNYGFRVSIEKSAGGSAGGSAGG [r11_603_TrROS]
- folding stability dG unfold [1]: -0.281 ± 0.29 kcal/mol
- folding stability dG unfold [2]: 0.278 ± 0.13 kcal/mol

Sequence: SAGGSAGGSAGPKPIEFEDPDNGRKIEYWPEENQISIENPGDGKEKEYPMDSPEELKEWMSAGGSAGGSAGG [r11_936_TrROS]
- folding stability dG unfold [1]: < -1 kcal/mol
- folding stability dG unfold [2]: 0.117 ± 0.17 kcal/mol

Sequence: SAGGSAGGSAGPMIKIGSTTRPFTPPLGGRLEYAPIDVDQSEEVAKEVAEELKPKGVIVNLSAGGSAGGSAG [r3_157_JUSTAS]
- folding stability dG unfold [1]: < -1 kcal/mol
- folding stability dG unfold [2]: -0.774 ± 0.35 kcal/mol

Sequence: SAGGSAGGSAGPPIYWRIEFENPGKKHTMTIPRDMPVDDIKEIADEIAKRFPMPISIEPVSAGGSAGGSAGG [r11_515_TrROS]
- folding stability dG unfold [1]: -0.565 ± 0.25 kcal/mol
- folding stability dG unfold [2]: -0.335 ± 0.22 kcal/mol

Sequence: SAGGSAGGSAGPPVLVSINPDENATVEVRTRPDGKPVLLFTVPKTGEVLVVHPDGKIDNSSAGGSAGGSAGG [r11_601_TrMRF]
- folding stability dG unfold [1]: -0.246 ± 0.35 kcal/mol
- folding stability dG unfold [2]: -0.0916 ± 0.17 kcal/mol

Sequence: SAGGSAGGSAGSKTITFIMVHPDDGYISDMEMRYTDNGIEMEMEWIPVPKEDAEELKDLISAGGSAGGSAGG [r11_47_TrROS]
- folding stability dG unfold [1]: -0.044 ± 0.19 kcal/mol
- folding stability dG unfold [2]: 0.225 ± 0.036 kcal/mol

Sequence: SAGGSAGGSAGTSTTVTEKPDPNSNRTYTTTTVERTTADGTTTTVTTTVYPDSTTSTTTASAGGSAGGSAGG [r11_987_JUSTAS]
- folding stability dG unfold [1]: 0.0978 ± 0.2 kcal/mol
- folding stability dG unfold [2]: 0.557 ± 0.094 kcal/mol

Sequence: SAGGSAGGSAHTIEDPDNNKKIEVHPPPNGNYMVEIERPDNGEKKTIMMPPDDVEEALNQISAGGSAGGSAG [r3_162_TrROS]
- folding stability dG unfold [1]: < -1 kcal/mol
- folding stability dG unfold [2]: -0.139 ± 0.2 kcal/mol

Sequence: SAGGSAGGSAKEVEVEVEEELPGGYYRATVRLPGEEKPLEVVVKGPREDALKAAEELAKEESAGGSAGGSAG [r3_104_TrMRF]
- folding stability dG unfold [1]: < -1 kcal/mol
- folding stability dG unfold [2]: -0.0768 ± 0.16 kcal/mol

Sequence: SAGGSAGGSAKITITAPPGETYRIKVKVKNENGEWKEVTRTIKVGEPLEDIEEVEIERIEPESAGGSAGGSA [r18_223_TrROS_Hall]
- folding stability dG unfold [1]: -0.146 ± 0.27 kcal/mol
- folding stability dG unfold [2]: 0.0462 ± 0.12 kcal/mol

Sequence: SAGGSAGGSAMIVVTLDDPEEAREAVRARFGPEVEITPLETTTVGDRVFTKIAVRVPPELASAGGSAGGSAG [r3_87_JUSTAS]
- folding stability dG unfold [1]: -0.395 ± 0.24 kcal/mol
- folding stability dG unfold [2]: -0.351 ± 0.19 kcal/mol

Sequence: SAGGSAGGSAMLKVTVKVPGTSKDYDFNVPESVGKEEAEKRLEEEYPGAEVTEIVEIPGEELSAGGSAGGSA [r18_242_JUSTAS]
- folding stability dG unfold [1]: -0.469 ± 0.26 kcal/mol
- folding stability dG unfold [2]: 0.545 ± 0.027 kcal/mol

Sequence: SAGGSAGGSAMPIPALVLVERPLPDGETEEREIPVIVEPDKIDEIIEEAEKEGYKVKEVKASAGGSAGGSAG [r3_453_TrMRF]
- folding stability dG unfold [1]: < -1 kcal/mol
- folding stability dG unfold [2]: -0.271 ± 0.06 kcal/mol

Sequence: SAGGSAGGSAMRVVEITVPPENPEELKREIAEAFPFEVEGEEVGDGSVTLRFILPEDVELGSAGGSAGGSAG [r3_457_TrMRF]
- folding stability dG unfold [1]: -0.212 ± 0.13 kcal/mol
- folding stability dG unfold [2]: 0.142 ± 0.097 kcal/mol

Sequence: SAGGSAGGSAPAEFPIEILEVERNPGNPMVEVGIKIPGDGRYIKIHFPPNGKIDIELVPLPSAGGSAGGSAG [r3_294_TrROS]
- folding stability dG unfold [1]: -0.29 ± 0.16 kcal/mol
- folding stability dG unfold [2]: 0.265 ± 0.1 kcal/mol

Sequence: SAGGSAGGSASSSVTITNRVTNPDTGLRYITIPSKGERVTLSPDESATIPVPPDAPVSVLGSSAGGSAGGSA [r18_329_JUSTAS]
- folding stability dG unfold [1]: < -1 kcal/mol
- folding stability dG unfold [2]: -0.694 ± 0.24 kcal/mol

Sequence: SAGGSAGGSATITISLGPPEYIEVYDPANGVKRKFPASVPKEEVAAEIEKEYPDTPVVFTTDASAGGSAGGS [r12_423_JUSTAS]
- folding stability dG unfold [1]: -0.172 ± 0.32 kcal/mol
- folding stability dG unfold [2]: 0.394 ± 0.06 kcal/mol

Sequence: SAGGSAGGSAVKVIPFPFNEALDLLNSGEPKEIHVVGPPGWYMTVQFNPPDNNIEIDDPVPPSAGGSAGGSA [r18_400_TrROS]
- folding stability dG unfold [1]: 0.194 ± 0.14 kcal/mol
- folding stability dG unfold [2]: 0.732 ± 0.043 kcal/mol

Sequence: SAGGSAGGSEGQPIIIKIKMENPGNGKKHKFDIMVPPGFKNAEEQANRLMNNFGPVKDVEIYPSAGGSAGGS [r12_942_TrROS]
- folding stability dG unfold [1]: < -1 kcal/mol
- folding stability dG unfold [2]: -0.846 ± 0.3 kcal/mol

Sequence: SAGGSAGGSEPDFVVVDIPFPPDVPLEALVEFARSLPSVVVNLVDEEGRPVSIALPREAVERLASAGGSAGG [r6_791_TrMRF]
- folding stability dG unfold [1]: < -1 kcal/mol
- folding stability dG unfold [2]: -0.347 ± 0.15 kcal/mol

Sequence: SAGGSAGGSETSIVFLEEEVLVEEEITLYRDGTPTRERRVRTERVVIRVPVKPEEDVNNPLLLSAGGSAGGS [r12_713_JUSTAS]
- folding stability dG unfold [1]: < -1 kcal/mol
- folding stability dG unfold [2]: -0.765 ± 0.82 kcal/mol

Sequence: SAGGSAGGSGKTIIIPLPNGNVIKVEVEEGSVKITYPKPKKELIKVENPKNALKNIKTYSYKGSAGGSAGGS [r12_32_TrMRF]
- folding stability dG unfold [1]: < -1 kcal/mol
- folding stability dG unfold [2]: -0.176 ± 0.32 kcal/mol

Sequence: SAGGSAGGSGSMAEVEAIVERAKELGLVPKSITTDPATNKPVVDLQPPSPELLEADPEILALLSAGGSAGGS [r12_482_JUSTAS]
- folding stability dG unfold [1]: < -1 kcal/mol
- folding stability dG unfold [2]: -0.585 ± 0.23 kcal/mol

Sequence: SAGGSAGGSKIEMMHAIRDNGKPFFVRITMDIQPQKDPNGEPKVNFEPKIEIYDPDGKPIFEISAGGSAGGS [r20_224_TrROS]
- folding stability dG unfold [1]: 0.392 ± 0.3 kcal/mol
- folding stability dG unfold [2]: 0.641 ± 0.14 kcal/mol

Sequence: SAGGSAGGSMEIVSTGSKEDAEEAVKEKVAAGEKARVVLRSPTDPTPVSEEEVTISEEELKEASAGGSAGGS [r12_241_JUSTAS]
- folding stability dG unfold [1]: < -1 kcal/mol
- folding stability dG unfold [2]: -1.61 ± 0.88 kcal/mol

Sequence: SAGGSAGGSMERLENGIERIRLLVRFPERDEVRLIEIPLDNVTPEEIIERARELGAEEIELLESAGGSAGGS [r12_792_TrMRF]
- folding stability dG unfold [1]: -0.545 ± 0.22 kcal/mol
- folding stability dG unfold [2]: 0.11 ± 0.26 kcal/mol

Sequence: SAGGSAGGSMIVEKKYSLDPAKGTITTTTTTVTPVPNGDSLIVSTTTTTKSVSPSESPDISSSSAGGSAGGS [r12_700_JUSTAS]
- folding stability dG unfold [1]: -0.553 ± 0.24 kcal/mol
- folding stability dG unfold [2]: -0.39 ± 0.066 kcal/mol

Sequence: SAGGSAGGSMKVITVPLPDGGTTTYEVEKGKVTITYPPSVTKEIEVPDPSKAIENIETVSYKSSAGGSAGGS [r12_32_JUSTAS]
- folding stability dG unfold [1]: < -1 kcal/mol
- folding stability dG unfold [2]: -0.76 ± 0.13 kcal/mol

Sequence: SAGGSAGGSMLTITVKTTDPAKGGSATTVIPVPVPGSVEEARELAEEIKKKLPPEVVEITVLESAGGSAGGS [r12_871_JUSTAS]
- folding stability dG unfold [1]: < -1 kcal/mol
- folding stability dG unfold [2]: -0.294 ± 0.19 kcal/mol

Sequence: SAGGSAGGSMPLRLAPVPIFLPEEEAVPVIEKLIEEGTEGGVGLIVPNVISPEEAGVHPDEPVSAGGSAGGS [r12_93_TrMRF]
- folding stability dG unfold [1]: < -1 kcal/mol
- folding stability dG unfold [2]: -0.263 ± 0.08 kcal/mol

Sequence: SAGGSAGGSMPVEVKFTVEKDPSTDLLTVTVTRPGGEVTPITYPDPNNLEAAKAAAEALAKASSAGGSAGGS [r12_1012_JUSTAS]
- folding stability dG unfold [1]: -0.2 ± 0.41 kcal/mol
- folding stability dG unfold [2]: 0.365 ± 0.076 kcal/mol

Sequence: SAGGSAGGSMVEIDPDNLVLTIVDPETGKAAVITAPPTADGTPVIKDVVVFDPDGNPHTFTVDSAGGSAGGS [r12_952_TrMRF]
- folding stability dG unfold [1]: 0.13 ± 0.091 kcal/mol
- folding stability dG unfold [2]: 0.666 ± 0.022 kcal/mol
